Measurements published in patent publication US20260098102A1 (NATIONAL UNIVERSITY CORPORATION KOBE UNIVERSITY, published 2026).

T1: mouse SIRPA_129 (mouse (129), UniProt P97797 32-513)
T1 construct: FLAG-tagged (pFLAG V5-DEST), on 293α cells; also called 129sv
T1 chain: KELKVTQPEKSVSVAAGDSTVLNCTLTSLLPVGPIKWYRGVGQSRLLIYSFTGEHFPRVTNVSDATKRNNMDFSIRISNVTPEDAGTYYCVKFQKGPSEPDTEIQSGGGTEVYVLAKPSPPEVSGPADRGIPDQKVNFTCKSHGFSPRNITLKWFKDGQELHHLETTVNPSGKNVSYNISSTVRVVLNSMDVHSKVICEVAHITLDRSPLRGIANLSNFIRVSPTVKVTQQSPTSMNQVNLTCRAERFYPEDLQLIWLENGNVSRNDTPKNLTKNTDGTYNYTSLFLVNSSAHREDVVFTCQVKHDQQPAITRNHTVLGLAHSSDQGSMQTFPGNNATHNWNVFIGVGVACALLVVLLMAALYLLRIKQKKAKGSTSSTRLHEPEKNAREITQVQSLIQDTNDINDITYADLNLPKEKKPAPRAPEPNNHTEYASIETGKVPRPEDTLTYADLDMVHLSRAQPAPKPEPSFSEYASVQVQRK

T2: mouse SIRPA variant hmSIRPA_Δ1 (mouse (with human residues), UniProt P97797 35-513)
T2 construct: FLAG-tagged (pFLAG V5-DEST), on 293α cells
T2 chain: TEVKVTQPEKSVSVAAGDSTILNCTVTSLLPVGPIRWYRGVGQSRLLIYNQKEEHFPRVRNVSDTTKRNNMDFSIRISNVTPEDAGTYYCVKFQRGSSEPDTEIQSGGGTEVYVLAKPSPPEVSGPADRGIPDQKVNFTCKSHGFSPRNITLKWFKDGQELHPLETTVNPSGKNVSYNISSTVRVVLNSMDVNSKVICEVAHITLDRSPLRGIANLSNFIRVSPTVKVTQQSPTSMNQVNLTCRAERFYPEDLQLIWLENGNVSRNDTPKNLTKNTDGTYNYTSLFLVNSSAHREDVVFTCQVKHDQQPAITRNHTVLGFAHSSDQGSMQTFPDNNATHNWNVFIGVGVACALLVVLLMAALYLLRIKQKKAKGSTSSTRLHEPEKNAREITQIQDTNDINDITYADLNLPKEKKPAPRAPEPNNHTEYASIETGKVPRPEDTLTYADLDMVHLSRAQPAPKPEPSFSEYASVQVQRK


What was measured:
mouse SIRPA_129 = molecular target: T1, mouse SIRPA_129; test: cell-based ELISA on 293α cells expressing FLAG-tagged mouse SIRPA (129sv); Abs 490 normalized to FLAG tag [iii]
Procedure: (§1) The 293a cells, described in Example 1)-6, were prepared at 5× 10⁵ cells/mL in a 10% FBS-containing DMEM medium. pFLAG V5-DEST-SIRPA_V1-V10, pFLAG V5-DEST-monkey SIRPA, pFLAG V5-DEST-mouse SIRPA, or pFLAG V5-DEST was introduced into the cells using Lipofectamine LTX (Invitrogen), and 100 μL each was aliquoted to a 96-well plate (Corning Incorporated) and cultured overnight in a 10% FBS-containing DMEM medium at 37° C. under a 5% CO₂ condition. The obtained introduced cells were used for cell-based ELISA in a state that they adhered. After the culture supernatant was removed, 50 μL per well of hD13_HIL3, hD13_HIL4h, hD13_H2L2, hD13_H2L3, or cD13 prepared in Examples 6 and 7 or a control antibody was added to each of various SIRPA genes-introduced cells at a final concentration of 0 to 10,000 ng/ml, and the mixture was allowed to stand at 4° C. for one hour. Thereafter, binding to human SIRPA was evaluated in the same manner as in Example 5-1.

[1] = molecular target: T2, mouse SIRPA variant hmSIRPA_Δ1; test: cell-based ELISA on 293α cells expressing FLAG-tagged hmSIRPA_Δ1; Abs 490 normalized to FLAG tag [ii]
Procedure: After the culture supernatant of 293α cells into which the pFLAG V5-DEST-hmSIRPA_Δ0, Δ1, and Δ2 expression vector prepared in 2)-1-2-2 was introduced and the pFLAG V5-DEST-introduced 293α cells was removed, 50 μL per well of four different D13 humanized anti-human SIRPA antibodies and a chimeric anti-human SIRPA antibody diluted with 5% FBS-containing PBS to a final concentration of 10,000 ng/mL were added to these cells, and the mixture was allowed to stand at 4° C. for one hour. Further, 50 μL per well of an anti-FLAG M2 antibody (SIGMA) diluted with 5% FBS-containing PBS to a final concentration of 10,000 ng/mL was added to a well for detecting expression of each SIRPA construct, and the mixture was allowed to stand at 4° C. for one hour. Thereafter, binding to each construct was evaluated in the same manner as in the evaluation of the binding activity of the human SIRPA. Binding of anti-human SIRPA antibodies to each construct was standardized by expression of the FLAG tag.

human SIRPA_V5 = molecular target: T3, human SIRPA_V5 (human, UniProt P78324 31-504); test: cell-based ELISA on 293α cells expressing FLAG-tagged SIRPA_V5; Abs 490 normalized to FLAG tag [i]
T3 construct: FLAG-tagged (pFLAG V5-DEST), on 293α cells; also called human SIRPA Variant 5
Procedure: as §1

human SIRPA_V2 protein = molecular target: T4, human SIRPA_V2 protein (human, UniProt P78324 31-504); test: cell-based ELISA on 293α cells expressing FLAG-tagged SIRPA_V2; Abs 490 normalized to FLAG tag [ii]
T4 construct: Expressed on 293α cells from pcDNA3.2 V5-DEST or pFLAG V5-DEST (FLAG-tagged) vectors; also called human SIRPA Variant 2; ECD variant (full-length, amino acids 1 to 504)
Procedure: as §1

human SIRPA_V9 = molecular target: T5, human SIRPA_V9 (human, UniProt P78324 31-504); test: cell-based ELISA on 293α cells expressing FLAG-tagged SIRPA_V9; Abs 490 normalized to FLAG tag [i]
T5 construct: FLAG-tagged (pFLAG V5-DEST), on 293α cells; also called human SIRPA Variant 9
Procedure: as §1

human SIRPA_V1 protein = molecular target: T6, human SIRPA_V1 protein (human, UniProt P78324 31-504); test: cell-based ELISA on 293α cells expressing FLAG-tagged SIRPA_V1; Abs 490 normalized to FLAG tag [i]
T6 construct: Expressed on 293α cells from pcDNA3.2 V5-DEST or pFLAG V5-DEST (FLAG-tagged) vectors; also called human SIRPA Variant 1; hSIRPA V1
Procedure: as §1

T3 sequence (P78324 other isoform, or with tags, fused parts or gaps limits assumed): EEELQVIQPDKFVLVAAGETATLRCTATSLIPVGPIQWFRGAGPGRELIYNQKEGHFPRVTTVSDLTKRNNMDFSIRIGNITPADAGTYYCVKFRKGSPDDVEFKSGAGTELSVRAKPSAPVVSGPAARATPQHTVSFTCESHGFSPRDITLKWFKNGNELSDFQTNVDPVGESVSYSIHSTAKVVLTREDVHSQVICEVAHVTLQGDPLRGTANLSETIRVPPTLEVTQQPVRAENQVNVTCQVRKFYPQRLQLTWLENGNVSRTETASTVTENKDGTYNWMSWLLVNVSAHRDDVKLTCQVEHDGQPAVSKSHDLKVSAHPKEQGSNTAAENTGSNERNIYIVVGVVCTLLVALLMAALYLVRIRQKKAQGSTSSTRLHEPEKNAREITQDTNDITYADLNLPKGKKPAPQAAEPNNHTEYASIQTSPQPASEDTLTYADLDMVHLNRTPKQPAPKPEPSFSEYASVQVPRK
T6 sequence (P78324 31-504 limits assumed): as the sequence (P78324 other isoform, or with tags, fused parts or gaps limits assumed) above, with F12S counted along it

Binder | binding result (mouse SIRPA_129) | binding result [1] | EC50 (read off the curve) (human SIRPA_V5) [mg/L] | EC50 (read off the curve) (human SIRPA_V2 protein) [mg/L] | EC50 (read off the curve) (human SIRPA_V9) [mg/L] | EC50 (read off the curve) (human SIRPA_V1 protein) [mg/L]
humanized anti-SIRPA antibody hD13_H1L3 (antibody, human IgG4 S228P, kappa, F234A L235A, V domains shown, hH1 heavy chain (IgG4proFALA) and hL3 kappa light chain; also called hD13_HIL3; HIL3 antibody) VH: QVQLVESGGGVVQPGRSLRLSCAASGFTFSDYGMIWVRQAPGKGLEWVASISSSSSYIYYADSVKGRFTISRDNSKNRLYLQMNSLRAEDTAVYYCARRYYGFNYPFDYWGQGTMVTVSS VL: DTQLTQSPSSLSASVGQRVTITCGASKSVRTYMHWYQQKPGKQPKLLIYSASNLEAGVPSRFSGSGSGTDFTLTISSLQPEDFATYYCQQSNEPPYTFGQGTKLEIKR | no binding (tested: 10000 ng/mL) | no binding (tested: 10000 ng/mL) | ~0.04 | ~0.03 | ~0.04 | ~0.04
humanized anti-SIRPA antibody hD13_H2L3 (antibody, human IgG4 S228P, kappa, F234A L235A, V domains shown, hH2 heavy chain (IgG4proFALA) and hL3 kappa light chain; also called H2L3 antibody) VH: EVQLVESGGGVVQPGRSLRLSCAASGFTFSDYGMIWVRQAPGKGLEWVASISSSSSYIYYADSVKGRFTISRDNSKNTLYLQMNSLRAEDTAVYYCARRYYGFNYPFDYWGQGTMVTVSS VL: DTQLTQSPSSLSASVGQRVTITCGASKSVRTYMHWYQQKPGKQPKLLIYSASNLEAGVPSRFSGSGSGTDFTLTISSLQPEDFATYYCQQSNEPPYTFGQGTKLEIKR | no binding (tested: 10000 ng/mL) | no binding (tested: 10000 ng/mL) | ~0.04 | ~0.03 | ~0.04 | ~0.05
humanized anti-SIRPA antibody hD13_H1L4 (antibody, human IgG4 S228P, kappa, F234A L235A, V domains shown, hH1 heavy chain (IgG4proFALA) and hL4 kappa light chain; also called hD13_HIL4; hD13_HIL4h) VH: QVQLVESGGGVVQPGRSLRLSCAASGFTFSDYGMIWVRQAPGKGLEWVASISSSSSYIYYADSVKGRFTISRDNSKNRLYLQMNSLRAEDTAVYYCARRYYGFNYPFDYWGQGTMVTVSS VL: DTVLTQSPDSLAVSLGQRATINCGASKSVRTYMHWYQQKPGQQPKLLIYSASNLEAGVPSRFSGSGSGTDFTLTISSLQAEDVAVYYCQQSNEPPYTFGQGTKVEIKR | no binding (tested: 10000 ng/mL) | no binding (tested: 10000 ng/mL) | ~0.04 | ~0.03 | ~0.04 | ~0.04
humanized anti-SIRPA antibody hD13_H2L2 (antibody, human IgG4 S228P, kappa, F234A L235A, V domains shown, hH2 heavy chain (IgG4proFALA) and hL2 kappa light chain; also called H2L2 antibody) VH: EVQLVESGGGVVQPGRSLRLSCAASGFTFSDYGMIWVRQAPGKGLEWVASISSSSSYIYYADSVKGRFTISRDNSKNTLYLQMNSLRAEDTAVYYCARRYYGFNYPFDYWGQGTMVTVSS VL: AIQLTQSPSSLSASVGQRVTITCGASKSVRTYMHWYQQKPGKAPKLLIYSASNLEAGVPSRFSGSGSGTDFTLTISSLQPEDFATYYCQQSNEPPYTFGQGTKLEIKR | no binding (tested: 10000 ng/mL) | no binding (tested: 10000 ng/mL) | ~0.04 | ~0.03 | ~0.04 | ~0.04
human chimeric anti-SIRPA antibody cD13 (antibody, human IgG4 S228P, kappa, F234A L235A, V domains shown, Human IgG4proFALA heavy chain, human kappa light chain; also called cD13 (IgG4pf); human chimeric antibody D13) VH: EVQLVESGGGLVQPGRSLKLSCLASGFTFSDYGMIWVRQAPGKGLEWVASISSSSSYIYYADTVKGRFTISRENAKNTLFLHMTSLRSEDTALYYCARRYYGFNYPFDYWGQGVMVTVSS VL: DTVLTQSPALAVSLGQRVTISCGASKSVRTYMHWYQQKSGQQPKLLIYSASNLEAGVPSRFSGSGSGTDFTLTIDPVEADDIANYYCQQSNEPPYTFGAGTKLELKR | no binding (tested: 10000 ng/mL) | no binding (tested: 10000 ng/mL) | ~0.04 | ~0.03 | ~0.04 | ~0.05
